Source: US20250034261A1 (TAIZHOU ENZE MEDICAL CENTER GROUP, published 2025)

Legend:
[1] = biological target: T1, HLA-G4 standard protein (human, UniProt P17693-4 25-246); test: immunoblot of HLA-G isoform standard proteins
T1 construct: Standard protein used in immunoblotting

[2] = biological target: T2, HLA-G3 standard protein (human, UniProt P17693-3 25-154); test: immunoblot of HLA-G isoform standard proteins
T2 construct: Standard protein used in immunoblotting

[3] = biological target: T3, HLA-G7 standard protein (human, UniProt P17693-7 25-116); test: immunoblot of HLA-G isoform standard proteins
T3 construct: Standard protein used in immunoblotting

[4] = biological target: T4, antigenic peptide located at positions 209-226 in the heavy chain α3 domain of the HLA-G molecules … (human); test: indirect ELISA, peptide coated at 2 ug/ml; antibody stock 2.8 mg/mL
T4 construct: Synthetic peptide, coated on the ELISA plate at 2 ug/ml; also called immunogen
T4 peptide: KTHVTHHPVFDYEATLRC

[5] = biological target: T4, antigenic peptide located at positions …; test: indirect ELISA, peptide coated at 2 ug/ml, antibody in 2-fold dilutions from 200-fold; logistic fit, 150000×A/antibody concentration

B1: monoclonal antibody (YWHG-3) against HLA-G1, -G2, -G5 and HLA-G6 isoforms (antibody, IgG1, V domains shown)
VH: LVQLQQSGGGLVKPGGSLKLSCAASGFTFSDYNMYWVRQTPEKRLEWVATISDGGRSTFYLDSVKGRFTISRDNAKNNLYLQINNLKSEDTAIYYCVRDDYWGQGTTLTVSS
VL: DIMMTQTPLSLPVSLGDQASISCRSSQSLVHSTGNTFLNWYLQKPGQSPKLLIYKVSNRFSGVSDRFSGSGSGTDFTLKIRRVEAEDLGVYFCSQSTHVPWTFGGGTKLEIK
notes: Used biotin-labelled in the HLA-G5 ELISA and FITC-labelled in flow cytometry; also called hybridoma CCTCC NO: 202121
B1: no binding (tested: 1.0 ug/ml) [1]; no binding (tested: 1.0 ug/ml) [2]; no binding (tested: 1.0 ug/ml) [3]. The “antibody dilution factor corresponding to 1/2 OD value” [4] was 205000 fold dilution and the Ka [5] was 1.1e+10 M⁻¹.
